These results are taken from doi:10.1101/2025.02.23.639735 (bioRxiv, 2025).

T1: 3’hExofl (human, UniProt Q8IV48 1-349)
T1 sequence (looked up): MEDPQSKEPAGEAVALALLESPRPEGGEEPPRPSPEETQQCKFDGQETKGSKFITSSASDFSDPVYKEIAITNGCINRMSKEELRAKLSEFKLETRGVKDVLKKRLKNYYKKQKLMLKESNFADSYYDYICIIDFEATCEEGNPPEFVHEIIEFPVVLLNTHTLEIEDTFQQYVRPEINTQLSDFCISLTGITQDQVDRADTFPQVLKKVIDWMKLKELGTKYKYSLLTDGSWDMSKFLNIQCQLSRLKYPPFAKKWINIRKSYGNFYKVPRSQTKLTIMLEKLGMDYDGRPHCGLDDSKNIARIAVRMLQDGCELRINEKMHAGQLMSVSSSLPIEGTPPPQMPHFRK

T2: 3’hExo nuclease domain (human, UniProt Q8IV48 124-349)
T2 sequence (looked up): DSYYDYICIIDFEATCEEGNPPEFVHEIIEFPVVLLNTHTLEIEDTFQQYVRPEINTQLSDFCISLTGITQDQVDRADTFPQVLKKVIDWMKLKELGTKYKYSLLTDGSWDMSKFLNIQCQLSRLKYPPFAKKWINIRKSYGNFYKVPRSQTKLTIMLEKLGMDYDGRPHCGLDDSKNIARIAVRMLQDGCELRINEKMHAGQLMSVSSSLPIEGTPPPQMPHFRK

B1: 3’hExo (construct of the SPR experiment not stated) (enzyme)
chain: T1 sequence (looked up)
B2: UPF2-AL (domain or fragment, human, UniProt Q9HAU5 1015-1106, looked up)
chain: NDKDSKDSMTEGENLEEDEEEEEGGAETEEQSGNESEVNEPEEEEGSDNDDDEGEEEEEENTDYLTDSNKENETDEENTEVMIKGGGLKHVP
modifications: 15N-labelled (15N/13C for the assignments) in the NMR experiments
B3: 3’hExo SAP domain (domain or fragment, human, UniProt Q8IV48 63-124, looked up)
chain: DPVYKEIAITNGCINRMSKEELRAKLSEFKLETRGVKDVLKKRLKNYYKKQKLMLKESNFAD
B4: UPF2^1024-1085 (domain or fragment, human, UniProt Q9HAU5 1024-1085, looked up)
chain: TEGENLEEDEEEEEGGAETEEQSGNESEVNEPEEEEGSDNDDDEGEEEEEENTDYLTDSNKE
modifications: also: 15N-labelled

Assay [1] has as its target UPF2 (construct of the SPR experiment not stated) (human). In words: SPR. A general note: In SPR one partner is held on a chip, and binding of the other changes the refractive index at the surface.
Assay [2] addresses T1, 3’hExofl. In words: SEC. For orientation: In gel filtration, larger molecules generally elute earlier.
A further assay has as its target T2, 3’hExo nuclease domain. In words: NMR titration.
The target in the assay “UPF2-AL” is B2. Nature of the assay: NMR titration.
Assay [3] addresses T1, 3’hExofl. In words: NMR titration.

Chain of UPF2 (construct of the SPR experiment not stated) (human) (Q9HAU5 whole entry): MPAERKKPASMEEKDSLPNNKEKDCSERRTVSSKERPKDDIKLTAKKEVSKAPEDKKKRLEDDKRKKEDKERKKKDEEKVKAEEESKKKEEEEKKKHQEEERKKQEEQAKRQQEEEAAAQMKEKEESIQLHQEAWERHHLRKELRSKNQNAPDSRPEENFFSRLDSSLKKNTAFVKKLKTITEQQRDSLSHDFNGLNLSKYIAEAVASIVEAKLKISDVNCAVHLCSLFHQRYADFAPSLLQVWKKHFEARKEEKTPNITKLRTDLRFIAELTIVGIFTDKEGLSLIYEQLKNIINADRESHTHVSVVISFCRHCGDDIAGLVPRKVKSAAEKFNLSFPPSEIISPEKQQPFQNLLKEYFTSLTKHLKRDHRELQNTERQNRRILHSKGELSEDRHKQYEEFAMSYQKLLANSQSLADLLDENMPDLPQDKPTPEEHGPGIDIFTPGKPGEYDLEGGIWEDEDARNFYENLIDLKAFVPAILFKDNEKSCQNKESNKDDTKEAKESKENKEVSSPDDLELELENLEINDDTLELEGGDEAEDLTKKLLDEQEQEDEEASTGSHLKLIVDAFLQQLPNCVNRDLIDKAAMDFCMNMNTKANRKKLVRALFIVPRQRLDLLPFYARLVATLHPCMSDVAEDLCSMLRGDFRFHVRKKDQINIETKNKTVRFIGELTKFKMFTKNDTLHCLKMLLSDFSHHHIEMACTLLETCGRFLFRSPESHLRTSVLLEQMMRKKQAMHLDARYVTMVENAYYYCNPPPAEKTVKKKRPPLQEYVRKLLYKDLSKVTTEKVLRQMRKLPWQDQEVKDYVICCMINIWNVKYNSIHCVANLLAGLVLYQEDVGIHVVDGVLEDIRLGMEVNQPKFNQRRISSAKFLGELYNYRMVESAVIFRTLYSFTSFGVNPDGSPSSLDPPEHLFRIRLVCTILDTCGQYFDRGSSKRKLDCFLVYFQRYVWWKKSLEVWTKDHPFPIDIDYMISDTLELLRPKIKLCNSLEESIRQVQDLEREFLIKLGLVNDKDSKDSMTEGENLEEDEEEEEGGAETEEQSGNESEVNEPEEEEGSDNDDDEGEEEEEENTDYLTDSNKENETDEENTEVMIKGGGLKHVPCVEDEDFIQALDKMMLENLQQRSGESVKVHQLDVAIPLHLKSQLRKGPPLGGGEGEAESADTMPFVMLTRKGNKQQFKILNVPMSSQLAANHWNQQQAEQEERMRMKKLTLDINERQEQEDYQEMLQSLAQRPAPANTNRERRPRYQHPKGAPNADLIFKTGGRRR

As to B1, in assay [1], the Kd (commonly a measure of binding affinity in units of concentration) is 170 µM.

On to B2, for which the binding result with 3’hExofl [2] and in the assay with 3’hExo nuclease domain was “binds” throughout.

Turning to B3, the binding result with UPF2-AL is “binds”.

B4 gave a Kd with 3’hExofl [3] of around 200 µM.
